Reference: PMC9820293

Key:
[1] = target: Bovine cardiac actin, filamentous (F-actin) (bovine) (UniProt Q3ZC07)
[2] = target: Bovine cardiac actin, filamentous (F-actin) (bovine) (UniProt Q3ZC07); remark: listed apart in the source
[3] = target: Bovine cardiac actin, filamentous (F-actin) (bovine) (UniProt Q3ZC07); remark: listed apart in the source
[4] = target: Bovine cardiac actin, filamentous (F-actin) (bovine) (UniProt Q3ZC07); test: temperature dependence of light scattering; thermally induced dissociation of Tpm complexes with F-actin stabilized by phalloidin; light scattering at 90°, 350 nm, heating 1 °C/min; Tdiss is the temperature at which a 50% decrease in light scattering occurs; no troponin
[5] = target: Bovine cardiac actin, filamentous (F-actin) (bovine) (UniProt Q3ZC07); test: co-sedimentation; Tpm co-sedimented with F-actin at room temperature; apparent affinity; K50% is the Tpm concentration at which half of the actin becomes saturated; three measurements averaged; as described in refs 27, 28

C50, myosin concentration at which the sliding velocity is half-maximal, in vitro motility assay; filament: F-actin alone [1] [µg/mL] | C50, myosin concentration at which the sliding velocity is half-maximal, in vitro motility assay; filament: F-actin with D219V Tpm [1] [µg/mL] | C50, myosin concentration at which the sliding velocity is half-maximal, in vitro motility assay; filament: F-actin with WT Tpm [1] [µg/mL] | Vmax, sliding velocity at saturated myosin concentration, in vitro motility assay; filament: F-actin alone [1] [µm/s] | Vmax, sliding velocity at saturated myosin concentration, in vitro motility assay; filament: F-actin with D219V Tpm [1] [µm/s] | Vmax, sliding velocity at saturated myosin concentration, in vitro motility assay; filament: F-actin with WT Tpm [1] [µm/s] | V0, sliding velocity at low Ca2+ concentration, in vitro motility assay; regulated thin filament of F-actin, D219V Tpm and troponin [2] [µm/s] | V0, sliding velocity at low Ca2+ concentration, in vitro motility assay; regulated thin filament of F-actin, WT Tpm and troponin [2] [µm/s] | Vmax, sliding velocity at saturated Ca2+ concentration, in vitro motility assay; regulated thin filament of F-actin, D219V Tpm and troponin [2] [µm/s] | Vmax, sliding velocity at saturated Ca2+ concentration, in vitro motility assay; regulated thin filament of F-actin, WT Tpm and troponin [2] [µm/s] | C50 of LA myosin for the sliding velocity of thin filaments at saturated Ca2+ concentration, in vitro motility assay; thin filament with D219V Tpm [3] [µg/mL] | C50 of LA myosin for the sliding velocity of thin filaments at saturated Ca2+ concentration, in vitro motility assay; thin filament with WT Tpm [3] [µg/mL] | Tdiss [4] [°C] | K50% [5] [µM] | C50 of LV myosin for the sliding velocity of thin filaments at saturated Ca2+ concentration, in vitro motility assay; thin filament with D219V Tpm [3] [µg/mL] | C50 of LV myosin for the sliding velocity of thin filaments at saturated Ca2+ concentration, in vitro motility assay; thin filament with WT Tpm [3] [µg/mL] | Substance
18 | 43 | 55.4 | 3.26 | 3.32 | 1.25 | 1.42 | 0.39 | 8.45 | 7.17 | 47.2 | 45.3 |  |  |  |  | Atrial myosin from the left atrium of the pig (from UniProt F1RRT2 1-197; F1SSF9 1-175) (complex)
 |  |  |  |  |  |  |  |  |  |  |  | 45.3 | 2.64 |  |  | Human Tpm1.1 D219V mutant (natural protein)
 |  |  |  |  |  |  |  |  |  |  |  | 43.3 | 2.88 |  |  | Human Tpm1.1 WT (cardiac tropomyosin 1.1) (natural protein)
20.1 | 26 | 54.9 | 2.88 | 2.93 | 1.5 | 0.81 | 0.24 | 4.22 | 3.73 |  |  |  |  | 25.9 | 30.1 | Ventricular myosin from the left ventricle of the pig (from UniProt P79293 1-1935) (complex)
